Literature values, collected in patent US20060193824A1, “Methods for the treatment of infectious and inflammatory airway diseases” (priority 2005, published 2006).

Key:
[1] = system: respiratory epithelial cells

B1: IL-4: cytokine obtainable from R & D Systems (protein, UniProt P05112 25-153, looked up)
Interleukin-4: HKCDITLQEIIKTLNSLTEQKTLCTELTVTDIFAASKNTTEKETFCRAATVLRQFYSHHEKDTRCLGATAQQFHRHKQLIRFLKRLDRNLWGLAGLNSCPVKEANQSTLENFLERLKTIMREKYSKCSS
Which mucus production (mucus production) does the source give for B1 here?
The mucus production was “modulates mucus production”.

B2: IL-10: cytokine obtainable from R & D systems (protein, UniProt P22301 19-178, looked up)
Interleukin-10: SPGQGTQSENSCTHFPGNLPNMLRDLRDAFSRVKTFFQMKDQLDNLLLKESLLEDFKGYLGCQALSEMIQFYLEEVMPQAENQDPDIKAHVNSLGENLKTLRLRLRRCHRFLPCENKSKAVEQVKNAFNKLQEKGIYKAMSEFDIFINYIEAYMTMKIRN
With B2 as the molecule, how does the inflammation (inflammation) read?
The inflammation was “attenuates excessive inflammation”.

B3: Human neutrophil elastase: Human neutrophil elastase (protein, UniProt P08246 30-267, looked up)
Neutrophil elastase: IVGGRRARPHAWPFMVSLQLRGGHFCGATLIAPNFVMSAAHCVANVNVRAVRVVLGAHNLSRREPTRQVFAVQRIFENGYDPVNLLNDIVILQLNGSATINANVQVAQLPAQGRRLGNGVQCLAMGWGLLGRNRGIASVLQELNVTVVTSLCRRSNVCTLVRGRQAGVCFGDSGSPLVCNGLIHGIASFVRGGCASGLYPDAFAPVAQFVNWIDSIIQRSEDNPCPHPRDPDPASRTH
For B3, which MUC5AC levels [1] is on record?
The MUC5AC levels was “increase MUC5AC levels”.
